The conditions of data set [1]: for Blood Plasma Conc. of axitinib / Blood Plasma Conc. of released axitinib / Kidney Tissue Conc. of released axitinib: mouse; for Blood Plasma Conc. of axitinib: oral gavage, single dose 30 mg/kg; for Blood Plasma Conc. of released axitinib / Kidney Tissue Conc. of released axitinib: injection, single dose 3 mg/kg; for Kidney Tissue Conc. of released axitinib: corrected for kidney tissue density; for axitinib level in kidney tissues vs from axitinib itself: 3 mg/kg compound vs 30 mg/kg oral axitinib.

The conditions of data set [2]: axitinib therapy, human use; cited from earlier work.
The next data set in a line: in vivo. The following applies: mouse, 3 mg/kg; for level at 3 h: iv. The source says: Preferential accumulation of compounds provided herein in kidneys (or near the site of a kidney cancer) may be evaluated by pharmacokinetic (PK) tests, such as in a standard rat PK test.
For the next data set, the system named is HK-2 cell line. In words: HK-2 cytotoxicity assay. Format: cell-based, human. The text has this: The assay is analogously to that described, for example, by Keirstead et al. in Toxicol. Sci. 2014, vol. 137, pp. 278-291.
Data set [3] is described as follows: 14-days repeat-dose mouse tolerability test. Type of data set: in vivo. The following applies: dose of at least 18 mg/kg/day.
A short description of data set [4]: In vitro antibacterial activity (MIC). Type of data set: cell-based. Particulars: relative to polymyxin antibiotics such as polymyxin B and colistin.
In data set [5] the test system is luciferase-expressing A498 renal cancer cell line (A498-luc). The following applies: 12 mg/kg/day ip vs axitinib at 30 mg/kg/day.
Procedure: An illustrative efficacy study for the compounds described herein was investigated in an orthotopic mouse model. In this model, a luciferase-expressing A498 renal cancer cell line (A498-luc) was used. The cancer cells were implanted into a kidney capsule and the tumor growth and effect were monitored by the image size using IVIS Lumina III (Perkin Elmer) and mouse body weight changes. Specifically, mice were anesthetized by SC injection of Zolet™ m 50 (Virbac S. A.) after 24 h fasting. The skin of anesthetized mice was sterilized with iodine followed by alcohol. 4×10^6 luciferase-expressing A498-luc cells were implanted in the left kidney by insulin syringe. The skin incisions were closed with autosuture clip. The tumor growths were monitored by image analysis. […] At 10 mins after the luciferin injection, the mice were imaged (once a week). Living image software (Perkin Elmer) is used to compute regions of interest (ROI) and integrate the total bioluminescence signal in each ROI. Bioluminescent signals (photos/s) from ROI were quantified and used as an indicator of tumor growth and antitumor activity. Body weight of all mice were measured twice a week throughout the study.

Each structure is given as a SMILES string. Read-outs that look alike come from different tables or passages of the source. Bridge positions count the residues as written; N and C are the ends. Square brackets hold non-standard residues; d marks the D form. Peptide text beside a SMILES is read from it. * marks the point of attachment. ξ: configuration not given here. X1 = CNC(=O)c1ccccc1Sc1ccc2c(/C=C/c3ccccn3)nn(C(=O)N(CCNC(=O)[C@@H](N)CCC(=O)O)CCC(=O)*)c2c1; X3 = CNC(=O)c1ccccc1Sc1ccc2c(/C=C/c3ccccn3)nn(C(=O)N(CCOC(=O)[C@@H](N)CCC(=O)O)CCC(=O)*)c2c1; X2 = CNC(=O)c1ccccc1Sc1ccc2c(/C=C/c3ccccn3)nn(C(=O)N(CCNC(=O)CC[C@H](N)C(=O)O)CCC(=O)*)c2c1; Thr(3ξ) = CC(O)[C@H](N)C(=O)O; Dab = NCC[C@H](N)C(=O)O; ξL = CC(C)CC(N)C(=O)O

Consider `CNC(=O)c1ccccc1Sc1ccc2c(/C=C/c3ccccn3)n[nH]c2c1` [Axitinib, N-methyl-2-[[3-[(E)-2-pyridin-2-ylethenyl]-1H-indazol-6-yl]sulfanyl]benzamide, reference compound], for which the “Blood Plasma Conc. of axitinib” value in data set [1] (T = 3 h) is listed as “T = 3 h: 397.3 ng/mL”; in data set [1] (T = 6 h), “T = 6 h: 75.6 ng/mL”; in data set [1] (T = 12 h), “T = 12 h: 11.4 ng/mL”; in data set [1] (T = 24 h), “T = 24 h: BLQ^d”. The “incidence of hypertensive adverse effects” value in data set [2] was 40-64%.

In the case of `CNC(=O)c1ccccc1Sc1ccc2c(/C=C/c3ccccn3)nn(C(=O)N(CCOC(=O)[C@@H](N)CCC(=O)O)CCC(=O)N[C@H]3CCNC(=O)[C@H]([C@@H](C)O)NC(=O)[C@H](CCN)NC(=O)[C@H](CCN)NC(=O)C(CC(C)C)NC(=O)[C@@H](Cc4ccccc4)NC(=O)[C@H](CCN)NC3=O)c2c1` (stereo partly shown) [Example 7] (X3-[Dab][Dab][dF][ξL][Dab][Dab]T; lactam 1-C), in data set [1] (T = 3 h), the “Blood Plasma Conc. of released axitinib” value was “T = 3 h: 14.5 ng/mL” and the “Kidney Tissue Conc. of released axitinib” value is “T = 3 h: 4280 ng/mL”. Also, in data set [1] (T = 6 h), the “Blood Plasma Conc. of released axitinib” value was “T = 6 h: BLQ” and the “Kidney Tissue Conc. of released axitinib” value was “T = 6 h: 4860 ng/mL”.

With `CNC(=O)c1ccccc1Sc1ccc2c(/C=C/c3ccccn3)nn(C(=O)N(CCNC(=O)[C@@H](N)CCC(=O)O)CCC(=O)N[C@H](C(=O)N[C@@H](CCN)C(=O)N[C@H]3CCNC(=O)[C@H](C(C)O)NC(=O)[C@H](CCN)NC(=O)[C@H](CCN)NC(=O)[C@H](CC(C)C)NC(=O)[C@@H](Cc4ccccc4)NC(=O)[C@H](CCN)NC3=O)C(C)O)c2c1` (stereo partly shown) [Example 1] (X1-[Thr(3ξ)][Dab][Dab][Dab][dF]L[Dab][Dab][Thr(3ξ)]; lactam 3-C), in “in vivo” (T = 3 h after injection), the “Kidney-to-Blood Conc. Ratio” value was found to be 63. The figures for the level at 3 h in “in vivo” (kidney) and in the data set “in vivo” (plasma) were 563 ng/mL and 9 ng/mL, respectively. For the same compound, the “In vitro human HK-2 assay IC50” value in the data set on HK-2 cell line (HK-2 immortalized proximal tubule cells from normal human kidney) is above 100 µg/mL. The “fold less active than axitinib in HK-2 cytotoxicity assay” value in the data set with HK-2 cell line (vs axitinib (free drug form)) is listed as 2-3 fold. Further, the tolerability entry in data set [3] was “well-tolerated”. In data set [4], the “antibacterial activity (MIC, minimum inhibitory concentration)” value is on record as “minimized antibacterial activity”. For the same compound, the “axitinib level in kidney tissues vs from axitinib itself” value in data set [1] (at 3 h) is 6.50 fold; in data set [1] (at 6 h), “about 15 fold”. Besides, the “Blood Plasma Conc. of released axitinib” value in data set [1] (T = 3 h) is given as “T = 3 h: 9.7 ng/mL”; in data set [1] (T = 6 h) it was “T = 6 h: 4.0 ng/mL”; in data set [1] (T = 12 h), “T = 12 h: BLQ”; in data set [1] (T = 24 h) it was “T = 24 h: BLQ”. Besides, the “Kidney Tissue Conc. of released axitinib” value in data set [1] (T = 3 h) is recorded as “T = 3 h: 1955.3 ng/mL”; in data set [1] (T = 6 h) it was “T = 6 h: 1448.5 ng/mL”; in data set [1] (T = 12 h) it was “T = 12 h: 1437.9 ng/mL”. The “body weight change (loss in weight) during efficacy study” value in data set [5] is “minimized loss in weight”.

For `CNC(=O)c1ccccc1Sc1ccc2c(/C=C/c3ccccn3)nn(C(=O)N(CCNC(=O)CC[C@H](N)C(=O)O)CCC(=O)N[C@H](C(=O)N[C@@H](CCN)C(=O)N[C@H]3CCNC(=O)[C@H]([C@@H](C)O)NC(=O)[C@H](CCN)NC(=O)[C@H](CCN)NC(=O)[C@H](CC(C)C)NC(=O)[C@@H](Cc4ccccc4)NC(=O)[C@H](CCN)NC3=O)[C@@H](C)O)c2c1` [Example 9, reference compound] (X2-T[Dab][Dab][Dab][dF]L[Dab][Dab]T; lactam 3-C), in data set [1] (T = 3 h), the “Blood Plasma Conc. of released axitinib” value was “T = 3 h: 14.9 ng/mL” and the “Kidney Tissue Conc. of released axitinib” value was “T = 3 h: 371.6 ng/mL”. Further, in data set [1] (T = 6 h), the “Blood Plasma Conc. of released axitinib” value is recorded as “T = 6 h: BLQ” and the “Kidney Tissue Conc. of released axitinib” value is on record as “T = 6 h: 28.8 ng/mL”.

Turning to `CNC(=O)c1ccccc1Sc1ccc2c(/C=C/c3ccccn3)nn(C(=O)N(CCNC(=O)[C@@H](N)CCC(=O)O)CCC(=O)N[C@H]3CCNC(=O)[C@H]([C@@H](C)O)NC(=O)[C@H](CCN)NC(=O)[C@H](CCN)NC(=O)C(CC(C)C)NC(=O)[C@@H](Cc4ccccc4)NC(=O)[C@H](CCN)NC3=O)c2c1` (stereo partly shown) [Example 2] (X1-[Dab][Dab][dF][ξL][Dab][Dab]T; lactam 1-C), the “Blood Plasma Conc. of released axitinib” value in data set [1] (T = 3 h) is given as “T = 3 h: 3.3 ng/mL”; in data set [1] (T = 6 h), “T = 6 h: BLQ”. The “Kidney Tissue Conc. of released axitinib” value is recorded as “T = 3 h: 5140 ng/mL” in data set [1] (T = 3 h) and “T = 6 h: 4630 ng/mL” in data set [1] (T = 6 h).

The record behind these values is patent US20240376155A1, “NOVEL COMPOUNDS AND COMPOSITIONS FOR TARGETED THERAPY OF RENAL CANCERS” (SHANGHAI MICURX PHARMACEUTICAL CO., LTD., priority 2021, published 2024).
